{
  "source": "patent US20100143245A1",
  "biological_target": "4Ig-B7H3, the 4Ig domain isoform of the human B7-homolog 3 (human) (UniProt Q5ZPR3)",
  "sequence (Q5ZPR3 29-534 limits assumed, form in doubt)": "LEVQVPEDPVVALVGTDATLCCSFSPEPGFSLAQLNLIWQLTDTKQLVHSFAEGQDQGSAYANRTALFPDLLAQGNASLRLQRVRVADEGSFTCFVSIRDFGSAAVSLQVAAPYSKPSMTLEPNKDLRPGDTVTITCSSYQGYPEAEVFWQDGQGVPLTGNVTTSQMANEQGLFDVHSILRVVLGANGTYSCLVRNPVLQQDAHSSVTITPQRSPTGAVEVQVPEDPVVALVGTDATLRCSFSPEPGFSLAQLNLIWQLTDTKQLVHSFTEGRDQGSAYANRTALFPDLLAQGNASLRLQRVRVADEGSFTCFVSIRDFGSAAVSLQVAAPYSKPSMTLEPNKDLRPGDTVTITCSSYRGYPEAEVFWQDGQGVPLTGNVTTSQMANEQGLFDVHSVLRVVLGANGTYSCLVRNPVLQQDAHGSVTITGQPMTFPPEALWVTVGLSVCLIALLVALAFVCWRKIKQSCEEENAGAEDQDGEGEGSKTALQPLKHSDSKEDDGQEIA",
  "experiment": "Immunoaffinity capture from LAN-1 lysate or membrane fraction on 8H9-protein G Sepharose, followed by Western blot",
  "data": [
    {"substance": "monoclonal antibody 8H9", "values": [
      {"measurement": "portion of 8H9 antigen bound to the Sepharose", "value": "> 50", "unit": "%"}
    ]}
  ]
}
